This note sets out measurements from article doi:10.1101/2020.07.24.212647 (bioRxiv, 2020).

The data set concerns the molecule itself. Put plainly: crystal structure.

B1: M. tuberculosis E2b catalytic domain (MtE2b_CD) (domain or fragment)
chain: PDVRPVHGVHARMAEKMTLSHKEIPTAKASVEVICAELLRLRDRFVSAAPEITPFALTLRLLVIALKHNVILNSTWVDSGEGPQVHVHRGVHLGFGAATERGLLVPVVTDAQDKNTRELASRVAELITGAREGTLTPAELRGSTFTVSNFGALGVDDGVPVINHPEAAILGLGAIKPRPVVVGGEVVARPTMTLTCVFDHRVVDGAQVAQFMCELRDLIESPETALLDL
For the protein B1, the “stoichiometry N” value turned out to be 24.
